Measured values reported in article PMC4797267, “The CSB chromatin remodeler and CTCF architectural protein cooperate in response to oxidative stress”.

Biological target: T1, MBP-CTCF (zinc fingers 1-11) (UniProt P49711 269-579)
T1 sequence: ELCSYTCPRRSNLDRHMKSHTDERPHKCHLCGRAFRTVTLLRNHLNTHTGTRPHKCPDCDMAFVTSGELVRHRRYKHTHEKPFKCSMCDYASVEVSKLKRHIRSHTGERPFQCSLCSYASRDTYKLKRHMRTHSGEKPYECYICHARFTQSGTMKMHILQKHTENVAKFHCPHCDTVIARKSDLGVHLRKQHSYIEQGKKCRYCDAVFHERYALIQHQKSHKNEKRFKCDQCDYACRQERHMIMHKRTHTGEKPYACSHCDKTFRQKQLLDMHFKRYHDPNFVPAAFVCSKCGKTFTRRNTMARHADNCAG
Assay: EMSA; 100 uM ZnSO4, 6 mM Mg2+; no CSB; 30 mM HEPES pH 7.9, 60 mM NaCl, 6% glycerol, 6 mM MgCl2, 100 uM ZnSO4, 0.02% NP40, 30 C 10 min; 1 nM DNA; 5% native PAGE, 0.5x TBE
Conditions: protein: recombinant; tags: MBP; label: 32P (body label, PCR with 32P-dATP); blunt

B1: 200 bp DNA fragment with CTCF-binding site (Fig. S4B) (dsDNA)
DNA 1: CACACCGAGTTCATCCCTTATGTGATGGACCCTCCACGAGGGGGCCCTGGAGAATCCCGGTGCCGAGGCTGCAGAATTGGTCGTAGACAGCTCTAGCACCGCTTAAACGCACGTACGCGCTGTCCCCCGCGTTTTAACCGCCAAGGGGATTACTCCCTAGTCTCCAGGCACGTGTCAGATATATACATCCTGT
DNA 2: ACAGGATGTATATATCTGACACGTGCCTGGAGACTAGGGAGTAATCCCCTTGGCGGTTAAAACGCGGGGGACAGCGCGTACGTGCGTTTAAGCGGTGCTAGAGCTGTCTACGACCAATTCTGCAGCCTCGGCACCGGGATTCTCCAGGGCCCCCTCGTGGAGGGTCCATCACATAAGGGATGAACTCGGTGTG
  binding result: binds
